Here are results for two proteins from article PMC4619462, “Description of the first fungal dye-decolorizing peroxidase oxidizing manganese(II)” (Applied Microbiology and Biotechnology, 2015).

What all share (assay): purified protein
Substrate in series [1]: Nc1c(S(=O)(=O)O)cc(Nc2cccc(S(=O)(=O)CCOS(=O)(=O)O)c2)c2c1C(=O)c1ccccc1C2=O
In kind it is biochemical, Pleurotus ostreatus. The note with it: 0.25 mM H2O2, 0.1 M tartrate pH 3.5, 25 °C.

Substrate in series [2]: COc1cccc(OC)c1O
Particulars: 0.25 mM H2O2, 0.1 M tartrate pH 3.5 (table note; methods say pH 3), 25 °C.

Substrate in series [3]: Nc1c(S(=O)(=O)O)cc(Nc2cccc(S(=O)(=O)CCOS(=O)(=O)O)c2)c2c1C(=O)c1ccccc1C2=O
The note with it: 0.25 mM H2O2, 0.1 M tartrate pH 3.5, 25 °C, pH 3.5.

Substrate in series [4]: Nc1c(N=Nc2ccc(S(=O)(=O)CCOS(=O)(=O)O)cc2)c(S(=O)(=O)O)cc2cc(S(=O)(=O)O)c(N=Nc3ccc(S(=O)(=O)CCOS(=O)(=O)O)cc3)c(O)c12
The note with it: 0.25 mM H2O2, 0.1 M tartrate pH 3.5 (table note; methods say pH 3), 25 °C.

Substrate in series [5]: CCn1c(=NN=c2sc3cc(S(=O)(=O)O)ccc3n2CC)sc2cc(S(=O)(=O)O)ccc21
In kind it is biochemical, Pleurotus ostreatus. Particulars: 0.25 mM H2O2, 0.1 M tartrate pH 3.5, 25 °C.

B1: Pleos-VP2 (Pleurotus ostreatus) (protein)
chain: VTCATGQTTANEACCALFPILDDIQTNLFDGAQCGEEVHESLRLTFHDAIAFSPALTNAGQFGGGGADGSMIIFSDTEPNFHANLGIDEIVEAQKPFIARHNICAADFIQFAGAIGVSNCAGAPRLNFFLGRPDATQIPPDGLVPEPFDDVTKILSRMGDAGFSTVEVVWLLSSHTIAAADLVDPSIPGTPFDSTPSTFDSQFFLETMLQGTAFPGTPGNQGEVESPLAGEMRLQSDFLLARDSRSACEWQSMVNNMPKIQNRFTQVMKKLSLLGHNQADLIDCSDVIPVPKTLTKAATFPAGKSQADVEIVCNAAATPFPALSSDPGPVTAVPPVPPS
In general, Km refers to the substrate concentration at which the rate is half of its maximum. Usually kcat stands for the maximal rate divided by the concentration of active sites. One may read the kcat/Km as the turnover number divided by the Michaelis constant. For the protein B1, in “purified protein [1]”, the Km is 16 ± 1 µM, the turnover number (kcat) amounted to 8 ± 0.2 s⁻¹ and the kcat/Km worked out at 495000 M⁻¹ s⁻¹.

B2: Pleos-DyP4 (Pleurotus ostreatus PC15) (protein)
chain: MTTPAPPLDLNNIQGDILGGLPKRTETYFFFDVTNVDQFKANMAHFIPHIKTSAGIIKDREAIKEHKRQKKPGLVPMAAVNVSFSHLGLQKLGITDDLSDNAFTTGQRKDAEILGDPGSKNGDAFTPAWEAPFLKDIHGVIFVAGDCHGSVNKKLDEIKHIFGVGTSHASISEVTHVRGDVRPGDVHAHEHFGFLDGISNPAVEQFDQNPLPGQDPIRPGFILAKENGDSRAAARPDWAKDGSFLTFRYLFQMVPEFDDFLESNPIVLPGLSRKEGSELLGARIVGRWKSGAPIEITPLKDDPKLAADAQRNNKFDFGDSLVRGDQTKCPFAAHIRKTYPRNDLEGPPLKADIDNRRIIRRGIQFGPEVTSQEHHDKKTHHGRGLLFVCYSSSIDDGFHFIQESWANAPNFPVNAVTSAGPIPPLDGVVPGFDAIIGQKVGGGIRQISGTNPNDPTTNITLPDQDFVVPRGGEYFFSPSITALKTKFAIGVASPAPHSQAPISA
Turning to B2, the Km was found to be 126 ± 21 µM in the series “purified protein [2]”, 82 ± 13 µM in the series “purified protein [3]”, 5.7 ± 0.4 µM in the series “purified protein [4]” and 787 ± 160 µM in “purified protein [5]”. For the same protein, the catalytic constant (kcat) in the series “purified protein [2]” was determined as 268 ± 24 s⁻¹; in “purified protein [3]” it was 152 ± 13 s⁻¹; in the series “purified protein [4]”, 5.3 ± 0.8 s⁻¹; in the series “purified protein [5]” it was 277 ± 24 s⁻¹. The kcat/Km was 2.12e+06 M⁻¹ s⁻¹ in “purified protein [2]”, 1.86e+06 M⁻¹ s⁻¹ in “purified protein [3]”, 1.08e+06 M⁻¹ s⁻¹ in the series “purified protein [4]” and 352000 M⁻¹ s⁻¹ in “purified protein [5]”.
